Consider 16 molecules from publication PMC6212638, “In silico identification and biochemical characterization of the human dicarboxylate clamp TPR protein interaction network” (FEBS Open Bio, 2018).

Ends that are not written are not given here. Peptide text beside a SMILES is read from it.

Test [1] deals with T1, FKBP51 (Homo sapiens, UniProt Q13451).
T1 sequence (Q13451 1-457): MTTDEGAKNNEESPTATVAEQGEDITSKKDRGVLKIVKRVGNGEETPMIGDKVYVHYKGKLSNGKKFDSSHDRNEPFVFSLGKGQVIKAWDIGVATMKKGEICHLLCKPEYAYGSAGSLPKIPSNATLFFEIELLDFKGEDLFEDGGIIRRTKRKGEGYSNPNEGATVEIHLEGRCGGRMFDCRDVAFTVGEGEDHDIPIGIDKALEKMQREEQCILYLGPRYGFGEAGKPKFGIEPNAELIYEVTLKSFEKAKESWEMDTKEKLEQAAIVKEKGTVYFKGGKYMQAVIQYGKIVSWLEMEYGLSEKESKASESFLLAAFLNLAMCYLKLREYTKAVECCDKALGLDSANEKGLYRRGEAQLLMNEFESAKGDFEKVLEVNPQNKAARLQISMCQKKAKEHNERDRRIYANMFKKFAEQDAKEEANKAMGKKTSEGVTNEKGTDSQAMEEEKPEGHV
The test is described as follows: Dot-blot competition assay: HRP-conjugated peptide vs unlabeled peptide on immobilized FKBP51.
Experimental: (§1) Full‐length cDNA clones for respective proteins were obtained from IMAGE consortium (SourceBioScience, Nottingham, UK) and PCR amplified with forward and reverse primers (Table 1) containing overhangs with appropriate restriction sites and cloned into pGEX6 vectors (GE Healthcare, Uppsala, Sweden). Inserts were sequence verified, and the plasmids were transformed into BL21 Escherichia coli strain. Glutathione‐S‐transferase (GST) fusion proteins were purified from 1 L overnight culture after 2 h of induction with 1 mM IPTG. Cells were pelleted, resuspended in 1× PBS and sonicated 3 × 20 s on ice. EDTA and protease inhibitor cocktail were added to prevent proteolysis. The suspension was centrifuged for 30 min at 50 000 g to remove cell debris, and supernatant was loaded onto a 1 mL GSTrap™ 4B column (GE Healthcare). After column washing with 30 mL PBS, GST fusion proteins were eluted with 2.5 mL 10 mM glutathione in PBS. Eluate was passed through a PD‐10 column (GE Healthcare) to remove free glutathione. To prepare GST‐tag‐free proteins, we performed overnight cleavage at 4 °C with PreScission protease (GE Healthcare) followed by passage through a GSTrap column to remove free GST protein. Average yield from 1 L starting culture was 1–5 mg of purified proteins. Protein‐containing fractions were collected, checked with SDS/PAGE and kept at −20 °C.
(§2) Peptides were dissolved in HEPES‐KOH buffer pH 7.2 at concentration of 1 mg·mL^−1 and incubated with equimolar amounts of activated horseradish peroxidase (HRP) (Lightning‐link® HRP labeling kit cat. 701‐004, from Innova Biosciences) for 5 min. Reaction was quenched with 0.1 M Tris/HCl, pH 7.5 for 10 min and the products were passed through PD‐10 columns (GE Healthcare). Dot‐blot experiments were performed using GST‐tag‐free proteins applied to the nitrocellulose membrane. After blocking of membrane with 3% BSA in TBS‐T buffer for 1 h and subsequent wash with TBS‐T, HRP‐conjugated peptides (1 × 500 times dilution) were applied and incubated for 1 h. After subsequent washing (3 × 10 min, TBS‐T), membrane was dried and signals were quantified using a digital Fujifilm LAS3000 imager and LAS3000 software. In competition experiments, increasing concentrations of unlabeled peptides were co‐incubated with peptide–HRP conjugates.
(§3) Each peptide was separately coupled to HRP.

The target in test [2] is T2, AIP (Homo sapiens, UniProt O00170).
T2 sequence (O00170 1-330): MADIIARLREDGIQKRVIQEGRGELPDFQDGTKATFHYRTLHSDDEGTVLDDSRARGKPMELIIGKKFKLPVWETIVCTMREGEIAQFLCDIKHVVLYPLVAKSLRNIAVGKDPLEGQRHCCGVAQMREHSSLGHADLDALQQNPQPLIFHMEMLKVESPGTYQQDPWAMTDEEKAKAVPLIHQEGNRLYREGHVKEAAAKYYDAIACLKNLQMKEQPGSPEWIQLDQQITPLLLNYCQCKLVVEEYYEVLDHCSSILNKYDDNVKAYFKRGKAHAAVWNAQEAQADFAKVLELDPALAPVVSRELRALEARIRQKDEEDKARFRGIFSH
The test is described as follows: Dot-blot competition assay: HRP-conjugated peptide vs unlabeled peptide on nitrocellulose-immobilized AIP.
Experimental: as §1, §2, §3

A further test has as its system Tom70. Put plainly: Dot-blot assay of Tom70 with HRP-conjugated Hsp90 and Tom20 peptides in presence of unconjugated peptides. In kind it is binding, human. The note with it: 20 μM unconjugated peptide. Here is the method:
In subsequent experiments, non‐fluorescent peptides were used. […] Cell impermeable Hsp90 peptide served as a treatment control.
Figure 6 In vitro and in situ analysis of interactions of 10‐amino‐acid peptides corresponding to C termini of Hsp90 and Tom20 with Tom70. (A) Dot‐blot assay of interactions between Tom70 and HRP‐conjugated 10‐amino‐acid peptides corresponding to C termini of Hsp90 and Tom20 in the presence of 20 μM of unconjugated peptides. (B) Fluorescence imaging of HEK293 cells in the presence of 20 μM of fluorescein‐labeled Hsp90, R9–Hsp90, Tom20 and R9–Tom20 peptides. (C) Inhibition of Tom20–Tom70 and Hsp90–Tom70 interactions with R9–Hsp90 and R9–Tom20 in HEK293 cells measured by PLA. n = 3. Graphs were created and SD values were calculated using PRISM, version 7.02. *P‐value < 0.05 compared to control; comparisons are based on one‐way ANOVA. (D) Inhibition of Tom20–Tom70 and Hsp90–Tom70 interactions with R9–Hsp90 and R9–Tom20 in HEK293 cells measured by mammalian two‐hybrid assay. n = 3. Graphs were created and SD values were calculated using PRISM, version 7.02. *P‐value < 0.05 compared to control; comparisons are based on one‐way ANOVA.

The target in test [3] is T3, FKBP51 (human, UniProt Q13451 1-457).
T3 construct: GST-tag-free protein spotted on nitrocellulose; also called immobilized FKBP51; source: E. coli BL21, purified as GST fusion (GSTrap), GST removed with PreScission protease
T3 sequence (looked up): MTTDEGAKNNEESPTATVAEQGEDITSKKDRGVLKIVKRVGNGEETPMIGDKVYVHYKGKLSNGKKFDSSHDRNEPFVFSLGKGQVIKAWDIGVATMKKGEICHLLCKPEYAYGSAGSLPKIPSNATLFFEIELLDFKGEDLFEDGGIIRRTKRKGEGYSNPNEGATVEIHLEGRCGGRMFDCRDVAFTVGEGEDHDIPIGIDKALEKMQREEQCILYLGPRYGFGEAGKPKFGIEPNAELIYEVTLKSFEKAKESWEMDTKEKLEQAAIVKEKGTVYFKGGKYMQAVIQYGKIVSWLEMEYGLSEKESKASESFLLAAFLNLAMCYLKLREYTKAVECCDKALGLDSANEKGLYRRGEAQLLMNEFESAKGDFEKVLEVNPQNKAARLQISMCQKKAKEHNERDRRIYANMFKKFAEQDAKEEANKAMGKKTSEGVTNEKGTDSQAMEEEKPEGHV
The test is described as follows: far-Western, overlay or dot blot; GST-tag-free FKBP51 or AIP on nitrocellulose, blocked with 3% BSA in TBS-T, probed 1 h with HRP-conjugated peptide, alone or with increasing concentrations of unlabeled peptide; luminescence quantified; IC50 estimated; n = 3. The settings on record: both partners purified.

Test [4] concerns the target T4, AIP (human, UniProt O00170 1-330).
T4 construct: GST-tag-free protein spotted on nitrocellulose; also called nitrocellulose-immobilized AIP; source: E. coli BL21, purified as GST fusion (GSTrap), GST removed with PreScission protease
T4 sequence (looked up): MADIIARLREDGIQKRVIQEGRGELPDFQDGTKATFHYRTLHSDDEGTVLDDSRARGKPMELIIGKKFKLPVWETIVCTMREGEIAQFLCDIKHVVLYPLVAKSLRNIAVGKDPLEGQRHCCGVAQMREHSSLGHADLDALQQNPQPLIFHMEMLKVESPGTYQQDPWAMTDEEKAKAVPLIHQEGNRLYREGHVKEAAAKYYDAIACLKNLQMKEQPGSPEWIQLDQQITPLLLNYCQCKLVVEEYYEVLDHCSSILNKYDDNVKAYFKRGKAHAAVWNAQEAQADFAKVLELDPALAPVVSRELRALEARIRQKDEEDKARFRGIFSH
The description is as above. The note with it: both partners purified.

The target in a further test is T5, Tom70(94–608) (UniProt O94826 94-608).
T5 construct: mitochondrial import receptor Tom70, residues 94-608 as the primers are named; the reverse primer codes for ...KPPTL-stop; source: dot blots used GST-tag-free proteins
T5 sequence (looked up): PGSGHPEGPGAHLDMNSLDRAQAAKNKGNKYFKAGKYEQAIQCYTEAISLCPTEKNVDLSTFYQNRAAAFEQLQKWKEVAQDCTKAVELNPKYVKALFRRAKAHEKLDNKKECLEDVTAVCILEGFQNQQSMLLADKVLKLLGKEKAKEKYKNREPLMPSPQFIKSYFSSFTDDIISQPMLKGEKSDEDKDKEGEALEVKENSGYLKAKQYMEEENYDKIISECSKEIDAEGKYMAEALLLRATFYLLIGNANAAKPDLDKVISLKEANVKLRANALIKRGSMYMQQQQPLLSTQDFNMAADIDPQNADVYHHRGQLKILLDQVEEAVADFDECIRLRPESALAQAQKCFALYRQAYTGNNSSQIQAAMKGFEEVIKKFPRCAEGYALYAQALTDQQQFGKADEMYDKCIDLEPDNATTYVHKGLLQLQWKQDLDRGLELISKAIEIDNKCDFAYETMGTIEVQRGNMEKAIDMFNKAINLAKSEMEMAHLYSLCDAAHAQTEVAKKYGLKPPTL
The test is described as follows: far-Western, overlay or dot blot; Tom70 on nitrocellulose, probed with HRP-conjugated Hsp90 or Tom20 peptide in the presence of 20 μM of unconjugated peptides. The note with it: both partners purified.

One may read the IC50 as the concentration needed to halve the response being measured. For the molecule `CC(C)C[C@H](NC(=O)[C@H](CC(=O)O)NC(=O)[C@H](Cc1ccc(O)cc1)NC(=O)[C@H](CC(C)C)NC(=O)[C@H](CC(C)C)NC(=O)[C@H](CO)NC(=O)[C@H](CC(N)=O)NC(=O)[C@H](CCC(N)=O)NC(=O)[C@@H](N)Cc1ccccc1)C(=O)N[C@@H](CC(=O)O)C(=O)O` [DNAAF2] (H-FQNSLLYDLD-OH), the values for the IC50 at FKBP51 [1] and on AIP [2] were 25.6 ± 1.54 µM and 8.47 ± 0.43 µM, respectively.

As for `CC[C@H](C)[C@H](NC(=O)[C@@H](NC(=O)[C@@H]1CCCN1C(=O)CNC(=O)[C@H](CO)NC(=O)CN)[C@@H](C)O)C(=O)N[C@@H](CCC(=O)O)C(=O)N[C@@H](CCC(=O)O)C(=O)N[C@H](C(=O)N[C@@H](CC(=O)O)C(=O)O)C(C)C` [Hsp70.1], the IC50 at FKBP51 [1] was determined as 27.6 ± 2.85 µM; on AIP [2], 10.6 ± 1 µM.

Take `CSCC[C@H](NC(=O)[C@H](CC(N)=O)NC(=O)[C@@H](NC(=O)[C@H](CO)NC(=O)[C@H](CC(N)=O)NC(=O)[C@H](CCCCN)NC(=O)[C@@H](N)CCC(=O)O)C(C)C)C(=O)N[C@@H](CC(=O)O)C(=O)N[C@@H](CC(C)C)C(=O)N[C@@H](CC(=O)O)C(=O)O` [Hsp105] (H-EKNSVNMDLD-OH): the values for the half-inhibitory concentration (IC50) on FKBP51 [1] and at AIP [2] were 42.8 ± 4.16 µM and 8.64 ± 0.8 µM, respectively.

As to `CC(C)C[C@H](NC(=O)[C@H](CO)NC(=O)[C@H](CCC(N)=O)NC(=O)[C@@H]1CCCN1C(=O)[C@H](CCC(=O)O)NC(=O)[C@H](C)N)C(=O)N[C@@H](CC(=O)O)C(=O)NCC(=O)N[C@H](C(=O)N[C@@H](CC(=O)O)C(=O)O)C(C)C` [NADSYN1] (H-AEPQSLDGVD-OH), the IC50 was determined as 28.2 ± 1.96 µM on FKBP51 [1] and 9.74 ± 0.72 µM on AIP [2].

Turning to `CC(C)C[C@H](NC(=O)[C@H](CO)NC(=O)[C@H](CCC(N)=O)NC(=O)[C@H](C)N)C(=O)N[C@@H](C)C(=O)N[C@@H](CCC(=O)O)C(=O)N[C@@H](CC(=O)O)C(=O)N[C@@H](CC(=O)O)C(=O)N[C@H](C(=O)N[C@@H](CCC(=O)O)C(=O)O)C(C)C` [Tom20] (H-AQSLAEDDVE-OH), the “competition with HRP-conjugated Hsp90 peptide for Tom70 binding” value with Tom70 is “unable to disrupt”. For the same molecule, the IC50 was found to be 132 ± 12.6 µM on FKBP51 [1] and 35.3 ± 3.2 µM at AIP [2].

On to `CSCC[C@H](NC(=O)[C@H](CC(N)=O)NC(=O)[C@H](CO)NC(=O)[C@H](Cc1ccc(O)cc1)NC(=O)[C@@H](NC(=O)[C@@H]1CCCN1)[C@@H](C)O)C(=O)N[C@@H](CCC(=O)O)C(=O)N[C@@H](CCC(=O)O)C(=O)N[C@H](C(=O)N[C@@H](CC(=O)O)C(=O)O)C(C)C` [Usp19] (H-PTYSNMEEVD-OH), for which the figures for the IC50 at FKBP51 [1] and on AIP [2] were 19.7 ± 2.55 µM and 18.8 ± 2.78 µM, respectively.

With `CSCC[C@H](NC(=O)[C@H](CCCCN)NC(=O)[C@H](CCC(=O)O)NC(=O)[C@H](CC(=O)O)NC(=O)[C@H](CC(=O)O)NC(=O)[C@@H](N)CO)C(=O)N1CCC[C@H]1C(=O)N[C@@H](CC(=O)O)C(=O)N[C@@H](CC(C)C)C(=O)N[C@@H](CCC(=O)O)C(=O)O` [p23] (H-SDDEKMPDLE-OH), the IC50 amounted to 189 ± 12.9 µM on FKBP51 [1] and 55 ± 4.51 µM at AIP [2].

B1: Tom20 peptide (peptide)
peptide: AQSLAEDDVE
notes: the 10 C-terminal residues of Tom20; also called Tom20 label-free peptide; unlabeled Tom20 peptide; source: synthetic peptide (Peptide 2.0, Inc.), > 95% purity
As for B1, the IC50 with FKBP51 [3] is 183 µM; with AIP [4], 62 µM.

B2: Hsp90β peptide (peptide)
peptide: EDASRMEEVD
notes: the 10 C-terminal residues of Hsp90β; also called Hsp90 peptide; Hsp90β-derived peptide; source: synthetic peptide (Peptide 2.0, Inc.), > 95% purity
B2: the binding result in the test with Tom70(94–608) is “binds”. Besides, the IC50 with FKBP51 [3] was 16 µM; with AIP [4], 18 µM.

B3: DNAAF2 peptide (peptide)
peptide: FQNSLLYDLD
notes: the 10 C-terminal residues of DNAAF2; source: synthetic peptide (Peptide 2.0, Inc.), > 95% purity
Turning to B3, the figures for the IC50 with FKBP51 [3] and with AIP [4] were 25 µM and 8 µM, respectively.

B4: p23 peptide (peptide)
peptide: SDDEKMPDLE
notes: the 10 C-terminal residues of p23 / PTGES3; also called p23 C-terminal peptide; source: synthetic peptide (Peptide 2.0, Inc.), > 95% purity
As for B4, the IC50 with FKBP51 [3] was 291 µM; with AIP [4], 47 µM.

B5: HRP-conjugated Hsp90β peptide (peptide)
peptide: EDASRMEEVD
modifications: also: HRP-conjugated
notes: the 10 C-terminal residues of Hsp90β; also called HRP–Hsp90; Hsp90 peptide conjugated to HRP
Turning to B5, the binding result in the test with Tom70(94–608) is “binds”.

B6: Usp19 peptide (peptide)
peptide: PTYSNMEEVD
notes: source: synthetic peptide (Peptide 2.0, Inc.), > 95% purity
As to B6, the results for the IC50 with FKBP51 [3] and with AIP [4] were 19 µM and 9 µM, respectively.

B7: Hsp105 peptide (peptide)
peptide: EKNSVNMDLD
notes: the 10 C-terminal residues of Hsp105; source: synthetic peptide (Peptide 2.0, Inc.), > 95% purity
As for B7, the IC50 with FKBP51 [3] is 40 µM; with AIP [4], 6 µM.

On to AQSLAEDDVE (also: HRP-conjugated, the 10 C-terminal residues of Tom20) [HRP-conjugated Tom20 peptide], for which the binding result in the test with Tom70(94–608) is “binds”.

B8: NADSYN1 peptide (peptide)
peptide: AEPQSLDGVD
notes: the 10 C-terminal residues of NADSYN1; source: synthetic peptide (Peptide 2.0, Inc.), > 95% purity
B8: the values for the IC50 with FKBP51 [3] and in the test with AIP [4] were 28 µM and 18 µM, respectively.
